# Measurements published in patent US20150246947A1 (BAXALTA, published 2015).
# T1: human Protein S (human, UniProt P07225 42-676)
# T1 sequence: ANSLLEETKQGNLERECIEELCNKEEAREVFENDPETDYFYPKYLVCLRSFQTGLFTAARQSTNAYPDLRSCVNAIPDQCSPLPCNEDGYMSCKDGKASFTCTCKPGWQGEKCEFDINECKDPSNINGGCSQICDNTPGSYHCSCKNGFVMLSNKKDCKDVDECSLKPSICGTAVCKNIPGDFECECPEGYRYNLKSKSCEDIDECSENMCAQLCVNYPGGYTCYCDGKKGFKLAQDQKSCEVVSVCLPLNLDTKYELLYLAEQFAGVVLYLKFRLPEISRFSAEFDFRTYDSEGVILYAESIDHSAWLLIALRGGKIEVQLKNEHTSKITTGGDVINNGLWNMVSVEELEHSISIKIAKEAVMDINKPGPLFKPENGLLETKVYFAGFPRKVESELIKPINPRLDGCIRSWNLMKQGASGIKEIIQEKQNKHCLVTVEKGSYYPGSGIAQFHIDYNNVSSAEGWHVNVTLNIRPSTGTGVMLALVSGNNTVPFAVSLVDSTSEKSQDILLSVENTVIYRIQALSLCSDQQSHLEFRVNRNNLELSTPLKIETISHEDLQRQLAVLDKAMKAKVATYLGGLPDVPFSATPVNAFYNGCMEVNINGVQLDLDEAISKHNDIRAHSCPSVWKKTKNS
# T2: human GAS6 (human, UniProt Q14393 49-678, limits assumed)
# T2 construct: Immobilized on the Biacore chip; also called protein encoded by the Growth Arrest Specific-6 gene; anti-target
# T2 sequence (looked up): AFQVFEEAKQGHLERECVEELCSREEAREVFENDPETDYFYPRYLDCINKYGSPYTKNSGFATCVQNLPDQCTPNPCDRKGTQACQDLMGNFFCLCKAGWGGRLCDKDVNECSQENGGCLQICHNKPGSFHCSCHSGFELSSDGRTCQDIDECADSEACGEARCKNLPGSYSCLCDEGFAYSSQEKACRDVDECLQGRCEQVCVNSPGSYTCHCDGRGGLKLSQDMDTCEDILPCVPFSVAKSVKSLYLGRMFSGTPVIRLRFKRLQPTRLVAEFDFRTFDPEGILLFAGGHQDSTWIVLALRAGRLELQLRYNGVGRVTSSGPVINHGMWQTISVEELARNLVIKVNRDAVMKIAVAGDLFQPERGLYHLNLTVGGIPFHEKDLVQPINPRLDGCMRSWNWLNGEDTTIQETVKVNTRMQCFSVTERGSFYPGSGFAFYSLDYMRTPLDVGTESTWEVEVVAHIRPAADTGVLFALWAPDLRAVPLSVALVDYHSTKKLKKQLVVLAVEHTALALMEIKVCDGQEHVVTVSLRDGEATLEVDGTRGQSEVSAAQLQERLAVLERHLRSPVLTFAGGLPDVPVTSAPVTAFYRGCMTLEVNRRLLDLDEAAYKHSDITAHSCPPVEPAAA
# Legend:
# human Protein S [1] = molecular target: T1, human Protein S; assay: cell-based or functional assay
# human GAS6 = molecular target: T2, human GAS6; assay: Biacore (SPR), GAS6 immobilized on the chip; sensorgrams reviewed visually
# Description: Protein S affinity also was determined via Biacore (Biacore 3000 or Biacore T200) using human full-length Protein S and human GAS6. Briefly, 1000 RU of Protein S or GAS6 were immobilized on a CMS chip. In order to probe the kinetics of Protein S binding peptides to Protein S, the peptides were injected at various concentrations in a HBS-buffer containing 3 mM CaCl₂ and 1% DMSO to the flow cell and allowed to interact with the immobilized proteins on the sensor chip. The chip could be regenerated with 4 M MgCl₂ in HBS-buffer. Sensorgrams were fitted to a Langmuir binding model for the determination of kₒₙ and koff and the calculation of KD. Peptides were tested on their specificity to Protein S with peptide binding studies on the anti-target GAS6.
# Interactions with the anti-target GAS6 were measured via Biacore (surface plasmon resonance) (see Example 2). The maximum signal from the interaction of the peptides with human GAS6 was much lower than the signals obtained with Protein S as interaction partner. Kinetic analysis of the low GAS6 binding signals was error prone, and sensorgrams were reviewed visually to estimate anti-target binding. […]
# human Protein S [2] = molecular target: T1, human Protein S; assay: competition ELISA IC50
# Description: The competition (IC50) ELISA was performed using biotinylated tracer peptide JBS0684 to compete for Protein S-binding with candidate peptides. Peptides that compete with the tracer bind the same region of Protein S as the tracer (and each other). Ninety-six well PolySorp plates (Nunc) were coated with 3 μg/mL Protein S in coating buffer (15 mM Na₂CO₃, 35 mM NaHCO₃, pH 9.6) over night. […] Plates were then washed three times with HNaT. JBS0684 was applied at a concentration corresponding to the EC90 value determined in the binding ELISA. A competitor stock solution of peptide (10 mM) was diluted 1/33.3 in HNaT without HSA, and a serial 1/3 dilution was prepared with HNaT with 3% DMSO. The dilution was further diluted with the biotinylated tracer peptide in a ratio of […] (20 μl competitor dilution and 100 μl tracer peptide). The mixture of competitor and tracer peptide was applied to the Protein S-coated microtiter plate and incubated for 1.5 hours. The plates were washed three times with HNaT. Peptide-Protein S binding was detected by applying HRP-conjugated streptavidin to the microtiter plate, incubating the mixture for one hour, washing the plate three times with HNaT, applying TMB (3,3′5,5′-Tetramethylbenzidin), and detecting the subsequent chromogenic conversion of TMB by HRP. IC50 measurements of peptides are provided herein (see, e.g., Table 3). […]
binder,measurement,setting,value
Ac-TGLVSAGWYDYNFDHYREFT-NH2 (also called parent peptide JBS2572) [JBS2572],CAT EC50,human Protein S [1],0.014 µM
same,binding result,human GAS6,no binding (tested: 1 µM)
same,fold increase in affinity compared to JBS2512,human Protein S [2],1.6 fold
